Assay results reported in PMC9223271 (Nature Communications, 2022).

B1: ZCB11 (human IgG1 monoclonal antibody) (antibody, V domains shown)
VH: EVQLVQSGPEVKKPGTSVKVACKASGFTFITPVSMQWVRQARGQRLEWLGWIVLASGNTDYAQKFQERVTIIRDMSTSTAYMELSRLRTEDTAVYYCAAPSCSRTICSDGFDIWGQGTMVTVSS
VL: EIVLTQSPGTLSLSPGERATLSCRASQSVSSSYLAWFQQKPGQAPRLLIFAASSRAIGIPARFSGSGSGTDFTLTISRLEPEDFAVYYCQQYSSSPWTFGQGTKVEIK
notes: also called bNAb ZCB11
B2: S2E12 (antibody, V domains shown)
VH: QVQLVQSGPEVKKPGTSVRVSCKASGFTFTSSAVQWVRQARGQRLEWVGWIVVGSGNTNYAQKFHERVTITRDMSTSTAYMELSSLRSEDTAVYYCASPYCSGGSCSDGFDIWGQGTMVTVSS
VL: DIVLTQTPGTLSLSPGERATLSCRASQSVSSSYLAWYQQKPGQAPRLLIYGASSRATGIPDRFSGSGSGTDFTLTISRLEPEDFAVYYCQQYVGLTGWTFGQGTKVEIK
notes: source: generated by the authors

Target: T1, SARS-CoV-2 RBD protein (recombinant, WT) (SARS-CoV-2 wild type (Wuhan-Hu-1 …, UniProt P0DTC2))
T1 construct: also called WT RBD
Test: SPR
Conditions: both partners purified

Binder | Kd | binding result
B1 | 0.0575 nM | –
B2 | – | binds
